Laboratory results taken from article PMC3217976, “A Conserved GA Element in TATA-Less RNA Polymerase II Promoters”.

Legend:
[1] = target: T1, TBPcore (UniProt P13393 61-240); assay: EMSA; 300 nM TBPcore, 50 ug/ml heparin; EMSA: 3 nM DNA, 300 nM TBPcore, 3 uM TFIIB, 4 mM Tris-HCl pH 8.0, 60 mM KCl, 5 mM MgCl2, 4% glycerol, 1 mM DTT, 100 ug/ml BSA, 0.1% Tween 20, 50 ug/ml heparin; settings: protein: recombinant; label: 5'-Cy5 on coding strand; blunt
T1 sequence: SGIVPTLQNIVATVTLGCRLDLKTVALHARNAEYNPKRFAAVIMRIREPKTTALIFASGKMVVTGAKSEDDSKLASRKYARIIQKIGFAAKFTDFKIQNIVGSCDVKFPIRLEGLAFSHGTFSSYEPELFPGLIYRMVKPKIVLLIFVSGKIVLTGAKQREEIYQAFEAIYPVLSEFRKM

[2] = target: T2, TBPcore;TFIIB (Saccharomyces cerevisiae?;Saccharomyces …, UniProt P13393;P29055 61-240;1-345, |); assay: EMSA; 300 nM TBPcore, 3 uM TFIIB, 50 ug/ml heparin; EMSA: 3 nM DNA, 300 nM TBPcore, 3 uM TFIIB, 4 mM Tris-HCl pH 8.0, 60 mM KCl, 5 mM MgCl2, 4% glycerol, 1 mM DTT, 100 ug/ml BSA, 0.1% Tween 20, 50 ug/ml heparin; settings: protein: recombinant;recombinant; tags: ;; copies: 1;1; label: 5'-Cy5 on coding strand; blunt
T2 sequence 1: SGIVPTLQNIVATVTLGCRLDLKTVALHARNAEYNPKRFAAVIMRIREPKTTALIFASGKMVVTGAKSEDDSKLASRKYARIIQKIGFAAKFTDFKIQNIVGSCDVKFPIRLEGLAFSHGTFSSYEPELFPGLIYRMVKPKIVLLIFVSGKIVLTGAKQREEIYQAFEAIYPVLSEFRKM
T2 sequence 2: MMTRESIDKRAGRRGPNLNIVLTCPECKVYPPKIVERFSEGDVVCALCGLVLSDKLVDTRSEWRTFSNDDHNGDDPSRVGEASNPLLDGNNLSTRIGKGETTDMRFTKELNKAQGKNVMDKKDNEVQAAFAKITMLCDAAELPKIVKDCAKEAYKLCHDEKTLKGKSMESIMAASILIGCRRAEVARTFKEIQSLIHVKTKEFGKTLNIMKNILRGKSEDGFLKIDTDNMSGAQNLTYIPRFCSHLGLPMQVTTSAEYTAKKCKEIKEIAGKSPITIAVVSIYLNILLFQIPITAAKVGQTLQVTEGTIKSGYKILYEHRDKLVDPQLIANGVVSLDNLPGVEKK

[3] = target: T1, TBPcore; assay: EMSA; not affected vs TMT1 (GAE); EMSA: 3 nM DNA, 300 nM TBPcore, 3 uM TFIIB, 4 mM Tris-HCl pH 8.0, 60 mM KCl, 5 mM MgCl2, 4% glycerol, 1 mM DTT, 100 ug/ml BSA, 0.1% Tween 20, 50 ug/ml heparin; settings: protein: recombinant; label: 5'-Cy5 on coding strand; blunt
[4] = target: T2, TBPcore;TFIIB; assay: as above; settings: protein: recombinant;recombinant; tags: ;; copies: 1;1; label: 5'-Cy5 on coding strand; blunt
[5] = target: T1, TBPcore; assay: EMSA; not impaired; EMSA: 3 nM DNA, 300 nM TBPcore, 3 uM TFIIB, 4 mM Tris-HCl pH 8.0, 60 mM KCl, 5 mM MgCl2, 4% glycerol, 1 mM DTT, 100 ug/ml BSA, 0.1% Tween 20, 50 ug/ml heparin; settings: protein: recombinant; label: 5'-Cy5 on coding strand; blunt
[6] = target: T2, TBPcore;TFIIB; assay: as above; settings: protein: recombinant;recombinant; tags: ;; copies: 1;1; label: 5'-Cy5 on coding strand; blunt
[7] = target: T1, TBPcore; assay: EMSA; GAE region not sufficient for binding; EMSA: 3 nM DNA, 300 nM TBPcore, 3 uM TFIIB, 4 mM Tris-HCl pH 8.0, 60 mM KCl, 5 mM MgCl2, 4% glycerol, 1 mM DTT, 100 ug/ml BSA, 0.1% Tween 20, 50 ug/ml heparin; settings: protein: recombinant; label: 5'-Cy5 on coding strand; blunt
[8] = target: T2, TBPcore;TFIIB; assay: as above; settings: protein: recombinant;recombinant; tags: ;; copies: 1;1; label: 5'-Cy5 on coding strand; blunt

B1: HIS4 (TATA) (dsDNA)
DNA 1: ACAGTAGTATACTGTGTATATAATAGATATGGAACGTTAT
DNA 2: ATAACGTTCCATATCTATTATATACACAGTATACTACTGT
[1]
  binding result: binds
[2]
  binding result: binds

B2: TMT1 (GAE) (dsDNA)
DNA 1: ATTTTCATTTTTAAAGGAAAAGGAATGTAACTAATTTAGT
DNA 2: ACTAAATTAGTTACATTCCTTTTCCTTTAAAAATGAAAAT
[1]
  binding result: binds
[2]
  binding result: binds

B3: TMT1 (A-12) (dsDNA)
DNA 1: ATTTTCATTTTTAAAAAAAAAAAAATGTAACTAATTTAGT
DNA 2: ACTAAATTAGTTACATTTTTTTTTTTTTAAAAATGAAAAT
[3]
  binding result: binds
[4]
  binding result: binds

B4: TMT1 (TATA) (dsDNA)
DNA 1: ATTTTCATTTTTTATATAATATGTAACTAATTTAGT
DNA 2: ACTAAATTAGTTACATATTATATAAAAAATGAAAAT
[5]
  binding result: binds
[6]
  binding result: binds

B5: HIS4 (GAE) (dsDNA)
DNA 1: TAGTATACTGTGAAAGGAAAAGGAAGATATGGAACGTTAT
DNA 2: ATAACGTTCCATATCTTCCTTTTCCTTTCACAGTATACTA
[7]
  binding result: no binding
[8]
  binding result: no binding
